Target: the molecule itself
Experiment: crystal structure; sitting-drop vapor diffusion at 20 °C, 8 mg/ml GFAT-1; 0.1 M Bis tris propane pH 8.5-9.0, 0.2-0.4 M potassium sodium tartrate, 20% (w/v) PEG3350; SEC buffer with Frc6P, 50 mM L-Arg and 50 mM L-Glu; two monomers in the asymmetric unit

B1: human glutamine fructose-6-phosphate amidotransferase-1 (GFAT-1) isoform 2, full length, with internal His6-tag (enzyme, UniProt Q06210-2 1-681, looked up)
chain: MCGIFAYLNYHVPRTRREILETLIKGLQRLEYRGYDSAGVGFDGGNDKDWEANACKIQLIKKKGKVKALDEEVHKQQDMDLDIEFDVHLGIAHTRWATHGEPSPVNSHPQRSDKNNEFIVIHNGIITNYKDLKKFLESKGYDFESETDTETIAKLVKYMYDNRESQDTSFTTLVERVIQQLEGAFALVFKSVHFPGQAVGTRRGSPLLIGVRSEHKLSTDHIPILYRTGKDKKGSCNLSRVDSTTCLFPVEEKAVEYYFASDASAVIEHTNRVIFLEDDDVAAVVDGRLSIHRIKRTAGDHPGRAVQTLQMELQQIMKGNFSSFMQKEIFEQPESVVNTMRGRVNFDDYTVNLGGLKDHIKEIQRCRRLILIACGTSYHAGVATRQVLEELTELPVMVELASDFLDRNTPVFRDDVCFFLSQSGETADTLMGLRYCKERGALTVGITNTVGSSISRETDCGVHINAGPEIGVASTKAYTSQFVSLVMFALMMCDDRISMQERRKEIMLGLKRLPDLIKEVLSMDDEIQKLATELYHQKSVLIMGRGYHYATCLEGALKIKEITYMHSEGILAGELKHGPLALVDKLMPVIMIIMRDHTYAKCQNALQQVVARQGRPVVICDKEDTETIKNTKRTIKVPHSVDCLQGILSVIPLQLLAFHLAVLRGYDVDFPRNLAKSVTVE
modifications: phosphoserine at 243 (found in mass spectrometry and in the crystal structure)
notes: human GFAT-1 isoform 2 (glutamine fructose-6-phosphate amidotransferase-1, EC 2.6.1.16), full length; residue numbers run to 681 (C-loop 670-681); His6 inserted between Gly299 and Asp300; Initial methionine removed in the purified protein; also called GFAT-1 WT; wild type GFAT-1; source: Sf21 insect cells (MultiBac baculovirus), purified (Ni-NTA, SEC); not shown: His6, internal (after residue …)
B1 was tested, and the “stoichiometry N” value was 2.

B2: human GFAT-1 G451E (isoform 2, full length, with internal His6-tag) (enzyme, UniProt Q06210-2 1-681, looked up)
chain: MCGIFAYLNYHVPRTRREILETLIKGLQRLEYRGYDSAGVGFDGGNDKDWEANACKIQLIKKKGKVKALDEEVHKQQDMDLDIEFDVHLGIAHTRWATHGEPSPVNSHPQRSDKNNEFIVIHNGIITNYKDLKKFLESKGYDFESETDTETIAKLVKYMYDNRESQDTSFTTLVERVIQQLEGAFALVFKSVHFPGQAVGTRRGSPLLIGVRSEHKLSTDHIPILYRTGKDKKGSCNLSRVDSTTCLFPVEEKAVEYYFASDASAVIEHTNRVIFLEDDDVAAVVDGRLSIHRIKRTAGDHPGRAVQTLQMELQQIMKGNFSSFMQKEIFEQPESVVNTMRGRVNFDDYTVNLGGLKDHIKEIQRCRRLILIACGTSYHAGVATRQVLEELTELPVMVELASDFLDRNTPVFRDDVCFFLSQSGETADTLMGLRYCKERGALTVGITNTVESSISRETDCGVHINAGPEIGVASTKAYTSQFVSLVMFALMMCDDRISMQERRKEIMLGLKRLPDLIKEVLSMDDEIQKLATELYHQKSVLIMGRGYHYATCLEGALKIKEITYMHSEGILAGELKHGPLALVDKLMPVIMIIMRDHTYAKCQNALQQVVARQGRPVVICDKEDTETIKNTKRTIKVPHSVDCLQGILSVIPLQLLAFHLAVLRGYDVDFPRNLAKSVTVE
notes: human GFAT-1 isoform 2, full length, with G451E; His6 inserted between Gly299 and Asp300 (made from pFL-hGFAT1-His299); Same construct as m1 with the point mutation G451E; source: Sf21 insect cells (MultiBac baculovirus), purified (Ni-NTA, SEC)
B2: binds.
